Bridges are numbered along the chain shown (N, C = ends). Where no end group is shown, it is not given here.
B3: IL-11Rα (recombinant, extracellular domain fused to the Fc region of human IgG) (Fc fusion, UniProt Q14626 24-370, looked up)
chain: SPCPQAWGPPGVQYGQPGRSVKLCCPGVTAGDPVSWFRDGEPKLLQGPDSGLGHELVLAQADSTDEGTYICQTLDGALGGTVTLQLGYPPARPVVSCQAADYENFSCTWSPSQISGLPTRYLTSYRKKTVLGADSQRRSPSTGPWPCPQDPLGAARCVVHGAEFWSQYRINVTEVNPLGASTRLLDVSLQSILRPDPPQGLRVESVPGYPRRLRASWTYPASWPCQPHFLLKFRLQYRPAQHPAWSTVEPAGLEEVITDAVAGLPHAVRVSARDFLDAGTWSTWSPEAWGTPSTGTIPKEIPAWGQLHTQPEVEPQVDSPAPPRPSLQPHPRLLDHRDSVEQVAVLA
notes: human interleukin-11 receptor alpha, extracellular domain; The methods of the NMR and of the proliferation assay name only 'IL-11Rα' or 'human sIL-11Rα'; also called IL-11 receptor α; sIL-11Rα; source: bought: R&D Systems

What was measured:
[1] = target: B3; experiment: phage binding assay; alanine-scanning phage on immobilized IL-11Rα, done as a1; result given as grade of the ratio binding to IL-11Rα / binding to BSA; in duplicate, repeated at least four times; conditions: one partner purified
GST-IL-11 G116A = target: T1, GST-IL-11 G116A (human, UniProt P20809 22-199, G116A); experiment: ELISA; GST fusion proteins coated overnight on 96-well plates at 5 µg/ml, blocked with 3% BSA in PBS; IL-11Rα (1 µg/ml) incubated for 2 h; detected with anti-human Fc HRP-conjugated antibody; conditions: both partners purified
T1 construct: human interleukin-11, open reading frame in pGEX4T-1, alanine mutant made on the GST-IL-11 plasmid; As m7 with the mutation; also called Gly^116 mutant; source: E. coli BL21, purified from inclusion bodies (solubilized in 6 M guanidine-HCl)
T1 sequence (looked up): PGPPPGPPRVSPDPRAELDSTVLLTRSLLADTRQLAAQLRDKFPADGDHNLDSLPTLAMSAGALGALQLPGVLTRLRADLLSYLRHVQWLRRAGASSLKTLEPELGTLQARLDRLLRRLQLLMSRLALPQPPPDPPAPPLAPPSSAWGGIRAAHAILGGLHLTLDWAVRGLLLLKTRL

GST-IL-11 G115A = target: T2, GST-IL-11 G115A (human, UniProt P20809 22-199, G115A); experiment: as above; conditions: both partners purified
T2 construct: human interleukin-11, open reading frame in pGEX4T-1, alanine mutant made on the GST-IL-11 plasmid; As m7 with the mutation; also called Gly^115 mutant; source: E. coli BL21, purified from inclusion bodies (solubilized in 6 M guanidine-HCl)
T2 sequence (looked up): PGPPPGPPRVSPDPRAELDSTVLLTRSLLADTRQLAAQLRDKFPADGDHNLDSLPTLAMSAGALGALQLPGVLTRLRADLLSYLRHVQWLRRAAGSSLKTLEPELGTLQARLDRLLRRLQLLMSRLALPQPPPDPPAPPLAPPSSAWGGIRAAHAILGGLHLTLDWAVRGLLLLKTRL

GST-IL-11 R112A = target: T3, GST-IL-11 R112A (human, UniProt P20809 22-199, R112A); experiment: as above; conditions: both partners purified
T3 construct: human interleukin-11, open reading frame in pGEX4T-1, alanine mutant made on the GST-IL-11 plasmid; As m7 with the mutation; also called Arg^112 mutant; source: E. coli BL21, purified from inclusion bodies (solubilized in 6 M guanidine-HCl)
T3 sequence (looked up): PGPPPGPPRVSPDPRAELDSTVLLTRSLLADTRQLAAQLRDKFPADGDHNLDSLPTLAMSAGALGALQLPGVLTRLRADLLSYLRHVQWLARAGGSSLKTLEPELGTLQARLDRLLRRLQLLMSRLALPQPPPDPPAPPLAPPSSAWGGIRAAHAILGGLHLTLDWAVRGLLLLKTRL

GST-IL-11 S117A = target: T4, GST-IL-11 S117A (human, UniProt P20809 22-199, S117A); experiment: as above; conditions: both partners purified
T4 construct: human interleukin-11, open reading frame in pGEX4T-1, alanine mutant made on the GST-IL-11 plasmid; As m7 with the mutation; also called Ser^117 mutant; source: E. coli BL21, purified from inclusion bodies (solubilized in 6 M guanidine-HCl)
T4 sequence (looked up): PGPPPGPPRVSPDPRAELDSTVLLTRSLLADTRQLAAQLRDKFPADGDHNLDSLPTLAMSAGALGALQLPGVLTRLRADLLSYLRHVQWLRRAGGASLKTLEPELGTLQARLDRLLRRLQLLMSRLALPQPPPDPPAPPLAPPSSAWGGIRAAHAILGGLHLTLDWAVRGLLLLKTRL

GST-IL-11 R113A (human) = GST-IL-11 R113A (human) (UniProt P20809); experiment: as above
[2] = target: B3; experiment: NMR titration; 1D-1H and 2D-1H TOCSY/NOESY at 600 MHz; IL-11Rα 6 µM, peptide up to 400 µM (molar excess ∼16-, 33- and 66-fold); 50 mM sodium phosphate, 5 mM sodium azide, 10% D2O; 25°C; conditions: both partners purified

B1: CGARAGGSC phage (Arg^3 to Ala mutant of the … phage) (peptide)
peptide: CGARAGGSC
notes: source: phage display, cloned into SfiI-digested fUSE5 vector
Question: B1 was tested. Which “% reduction of binding relative to the … phage” value [1] did it give?
Answer: > 70%

B2: CGRRAAGSC phage (Gly^6 to Ala mutant of the … phage) (peptide)
peptide: CGRRAAGSC
notes: as for B1
Question: Which “% reduction of binding relative to the … phage” value [1] does the source give for B2 here?
Answer: > 70%

Question: B3 was tested. Which “% binding inhibition relative to wild-type IL-11” value (GST-IL-11 G116A) did it give?
Answer: 29%

Question: And the “% binding inhibition relative to wild-type IL-11” value (GST-IL-11 G115A)?
Answer: 71%

Question: What about the “% binding inhibition relative to wild-type IL-11” value (GST-IL-11 R112A) of the same binder?
Answer: 43%

Question: What about the “% binding inhibition relative to wild-type IL-11” value (GST-IL-11 S117A) of the same binder?
Answer: 86%

Question: What about the % binding inhibition relative to wild-type IL-11 (GST-IL-11 R113A (human)) of the same binder?
Answer: 86%

B4: synthetic cyclic peptide CGRRAGGSC (peptide)
peptide: CGRRAGGSC
modifications: disulfide 1-9
notes: peptide selected from a combinatorial phage library in a cancer patient; RRAGGS corresponds to residues 112-117 of human IL-11; also called IL-11-like peptide; source: synthetic peptide, synthesized and cyclized at AnaSpec
Question: Does B4 bind [2]?
Answer: binds

Source: article PMC2565473, “A Ligand Peptide Motif Selected from a Cancer Patient Is a Receptor-Interacting Site within Human Interleukin-11” (PLoS ONE, 2008)
